According to US20110306096A1 (PACIFIC BIOSCIENCES OF CALIFORNIA, published 2011):

The binders below were run against T1, streptavidin (UniProt P22629 37-163, limits assumed) (assay: HPLC after mixing the purified fusion protein with a 2-fold molar excess of streptavidin).
T1 construct: Used at a 2-fold molar excess over the fusion protein
Protocol: Each of the DNA sequences encoding the affinity peptides was added individually to the 5′ terminus of a His(10)-tagged phi29 DNA polymerase gene such that the polypeptide expressed from each construct was a fusion protein consisting of: N-terminus-biotinylation peptide-His(10)-phi29 pol-C-terminus. Each gene was expressed in E. coli cells co-expressing biotin ligase in culture medium containing biotin. These conditions are known to effect the in-vivo biotinylation of biotinylation peptides. Proteins were purified using Ni-NTA columns and then mixed with a 2-fold molar excess of streptavidin under conditions known to effect binding of streptavidin to biotinylated fusion proteins.
The degree of biotinylation of each protein was assessed by HPLC. […] None of the biotinylation peptides affected the polymerase activity when tested in a branching fraction assay performed, for example, as described in U.S. patent application No. 2010/0112645.

T1 sequence (P22629 37-163 limits assumed): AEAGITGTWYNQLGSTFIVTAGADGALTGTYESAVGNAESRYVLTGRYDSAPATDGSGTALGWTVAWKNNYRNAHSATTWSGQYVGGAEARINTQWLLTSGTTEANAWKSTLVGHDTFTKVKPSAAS

Row | Binder | percent bound to streptavidin [%]
1 | SEQ ID NO 11 (other, phi29, biotin on the lysine of the biotinylation peptide (in-vivo biotinylation by biotin ligase), N-terminus-biotinylation peptide-His(10)-phi29 pol-C-terminus; expressed in E. coli co-expressing biotin ligase, Ni-NTA purified) LNDIFNAQKIEWHHHHHHHHHHHMKHMPRKMYSCDFETTTKVEDCRVWAYGYMNIEDHSEYKIGNSLDEFMAWVLKVQADLYFHNLKFDGAFIINWLERNGFKWSADGLPNTYNTIISRMGQWYMIDICLGYKGKRKIHTVIYDSLKKLPFPVKKIAKDFKLTVLKGDIDYHKERPVGYKITPEEYAYIKNDIQIIAEALLIQFKQGLDRMTAGSDSLKGFKDIITTKKFKKVFPTLSLGLDKEVRYAYRGGFTWLNDRFKEKEIGEGMVFDVNSLYPAQMYSRLLPYGEPIVFEGKYVWDEDYPLHIQHIRCEFELKEGYIPTIQIKRSRFYKGNEYLKSSGGEIADLWLSNVDLELMKEHYDLYNVEYISGLKFKATTGLFKDFIDKWTYIKTTSEGAIKQLAKLMLNSLYGKFASNPDVTGKVPYLKENGALGFRLGEEETKDPVYTPMGVFITAWARYTTITAAQACYDRIIYCDTDSIHLTGTEIPDVIKDIVDPKKLGYWAHESTFKRAKYLRQKTYIQDIYMKEVDGKLVEGSPDDYTDIKFSVKCAGMTDKIKKEVTFENFKVGFSRKMKPKPVQVPGGVVLVDDTFTIK | ~100
2 | SEQ ID NO 10 (other, phi29, biotin on the lysine of the biotinylation peptide (in-vivo biotinylation by biotin ligase), N-terminus-biotinylation peptide-His(10)-phi29 pol-C-terminus; expressed in E. coli co-expressing biotin ligase, Ni-NTA purified) LNDIFHAQKIEWHHHHHHHHHHHMKHMPRKMYSCDFETTTKVEDCRVWAYGYMNIEDHSEYKIGNSLDEFMAWVLKVQADLYFHNLKFDGAFIINWLERNGFKWSADGLPNTYNTIISRMGQWYMIDICLGYKGKRKIHTVIYDSLKKLPFPVKKIAKDFKLTVLKGDIDYHKERPVGYKITPEEYAYIKNDIQIIAEALLIQFKQGLDRMTAGSDSLKGFKDIITTKKFKKVFPTLSLGLDKEVRYAYRGGFTWLNDRFKEKEIGEGMVFDVNSLYPAQMYSRLLPYGEPIVFEGKYVWDEDYPLHIQHIRCEFELKEGYIPTIQIKRSRFYKGNEYLKSSGGEIADLWLSNVDLELMKEHYDLYNVEYISGLKFKATTGLFKDFIDKWTYIKTTSEGAIKQLAKLMLNSLYGKFASNPDVTGKVPYLKENGALGFRLGEEETKDPVYTPMGVFITAWARYTTITAAQACYDRIIYCDTDSIHLTGTEIPDVIKDIVDPKKLGYWAHESTFKRAKYLRQKTYIQDIYMKEVDGKLVEGSPDDYTDIKFSVKCAGMTDKIKKEVTFENFKVGFSRKMKPKPVQVPGGVVLVDDTFTIK | ~100
3 | SEQ ID NO 3 (other, phi29, biotin on the lysine of the biotinylation peptide (in-vivo biotinylation by biotin ligase), N-terminus-biotinylation peptide-His(10)-phi29 pol-C-terminus; expressed in E. coli co-expressing biotin ligase, Ni-NTA purified) LNDFFNAQKIEWHHHHHHHHHHHMKHMPRKMYSCDFETTTKVEDCRVWAYGYMNIEDHSEYKIGNSLDEFMAWVLKVQADLYFHNLKFDGAFIINWLERNGFKWSADGLPNTYNTIISRMGQWYMIDICLGYKGKRKIHTVIYDSLKKLPFPVKKIAKDFKLTVLKGDIDYHKERPVGYKITPEEYAYIKNDIQIIAEALLIQFKQGLDRMTAGSDSLKGFKDIITTKKFKKVFPTLSLGLDKEVRYAYRGGFTWLNDRFKEKEIGEGMVFDVNSLYPAQMYSRLLPYGEPIVFEGKYVWDEDYPLHIQHIRCEFELKEGYIPTIQIKRSRFYKGNEYLKSSGGEIADLWLSNVDLELMKEHYDLYNVEYISGLKFKATTGLFKDFIDKWTYIKTTSEGAIKQLAKLMLNSLYGKFASNPDVTGKVPYLKENGALGFRLGEEETKDPVYTPMGVFITAWARYTTITAAQACYDRIIYCDTDSIHLTGTEIPDVIKDIVDPKKLGYWAHESTFKRAKYLRQKTYIQDIYMKEVDGKLVEGSPDDYTDIKFSVKCAGMTDKIKKEVTFENFKVGFSRKMKPKPVQVPGGVVLVDDTFTIK | ~100
4 | SEQ ID NO 4 (other, phi29, biotin on the lysine of the biotinylation peptide (in-vivo biotinylation by biotin ligase), N-terminus-biotinylation peptide-His(10)-phi29 pol-C-terminus; expressed in E. coli co-expressing biotin ligase, Ni-NTA purified) INDLFSAQKIEWHHHHHHHHHHHMKHMPRKMYSCDFETTTKVEDCRVWAYGYMNIEDHSEYKIGNSLDEFMAWVLKVQADLYFHNLKFDGAFIINWLERNGFKWSADGLPNTYNTIISRMGQWYMIDICLGYKGKRKIHTVIYDSLKKLPFPVKKIAKDFKLTVLKGDIDYHKERPVGYKITPEEYAYIKNDIQIIAEALLIQFKQGLDRMTAGSDSLKGFKDIITTKKFKKVFPTLSLGLDKEVRYAYRGGFTWLNDRFKEKEIGEGMVFDVNSLYPAQMYSRLLPYGEPIVFEGKYVWDEDYPLHIQHIRCEFELKEGYIPTIQIKRSRFYKGNEYLKSSGGEIADLWLSNVDLELMKEHYDLYNVEYISGLKFKATTGLFKDFIDKWTYIKTTSEGAIKQLAKLMLNSLYGKFASNPDVTGKVPYLKENGALGFRLGEEETKDPVYTPMGVFITAWARYTTITAAQACYDRIIYCDTDSIHLTGTEIPDVIKDIVDPKKLGYWAHESTFKRAKYLRQKTYIQDIYMKEVDGKLVEGSPDDYTDIKFSVKCAGMTDKIKKEVTFENFKVGFSRKMKPKPVQVPGGVVLVDDTFTIK | ~100
5 | SEQ ID NO 6 (other, phi29, biotin on the lysine of the biotinylation peptide (in-vivo biotinylation by biotin ligase), N-terminus-biotinylation peptide-His(10)-phi29 pol-C-terminus; expressed in E. coli co-expressing biotin ligase, Ni-NTA purified) LNLIFEAQKIEWHHHHHHHHHHHMKHMPRKMYSCDFETTTKVEDCRVWAYGYMNIEDHSEYKIGNSLDEFMAWVLKVQADLYFHNLKFDGAFIINWLERNGFKWSADGLPNTYNTIISRMGQWYMIDICLGYKGKRKIHTVIYDSLKKLPFPVKKIAKDFKLTVLKGDIDYHKERPVGYKITPEEYAYIKNDIQIIAEALLIQFKQGLDRMTAGSDSLKGFKDIITTKKFKKVFPTLSLGLDKEVRYAYRGGFTWLNDRFKEKEIGEGMVFDVNSLYPAQMYSRLLPYGEPIVFEGKYVWDEDYPLHIQHIRCEFELKEGYIPTIQIKRSRFYKGNEYLKSSGGEIADLWLSNVDLELMKEHYDLYNVEYISGLKFKATTGLFKDFIDKWTYIKTTSEGAIKQLAKLMLNSLYGKFASNPDVTGKVPYLKENGALGFRLGEEETKDPVYTPMGVFITAWARYTTITAAQACYDRIIYCDTDSIHLTGTEIPDVIKDIVDPKKLGYWAHESTFKRAKYLRQKTYIQDIYMKEVDGKLVEGSPDDYTDIKFSVKCAGMTDKIKKEVTFENFKVGFSRKMKPKPVQVPGGVVLVDDTFTIK | ~100
6 | SEQ ID NO 12 (other, phi29, biotin on the lysine of the biotinylation peptide (in-vivo biotinylation by biotin ligase), N-terminus-biotinylation peptide-His(10)-phi29 pol-C-terminus; expressed in E. coli co-expressing biotin ligase, Ni-NTA purified) LNDIFSAQKIEWHHHHHHHHHHHMKHMPRKMYSCDFETTTKVEDCRVWAYGYMNIEDHSEYKIGNSLDEFMAWVLKVQADLYFHNLKFDGAFIINWLERNGFKWSADGLPNTYNTIISRMGQWYMIDICLGYKGKRKIHTVIYDSLKKLPFPVKKIAKDFKLTVLKGDIDYHKERPVGYKITPEEYAYIKNDIQIIAEALLIQFKQGLDRMTAGSDSLKGFKDIITTKKFKKVFPTLSLGLDKEVRYAYRGGFTWLNDRFKEKEIGEGMVFDVNSLYPAQMYSRLLPYGEPIVFEGKYVWDEDYPLHIQHIRCEFELKEGYIPTIQIKRSRFYKGNEYLKSSGGEIADLWLSNVDLELMKEHYDLYNVEYISGLKFKATTGLFKDFIDKWTYIKTTSEGAIKQLAKLMLNSLYGKFASNPDVTGKVPYLKENGALGFRLGEEETKDPVYTPMGVFITAWARYTTITAAQACYDRIIYCDTDSIHLTGTEIPDVIKDIVDPKKLGYWAHESTFKRAKYLRQKTYIQDIYMKEVDGKLVEGSPDDYTDIKFSVKCAGMTDKIKKEVTFENFKVGFSRKMKPKPVQVPGGVVLVDDTFTIK | ~100
7 | SEQ ID NO 7 (other, phi29, biotin on the lysine of the biotinylation peptide (in-vivo biotinylation by biotin ligase), N-terminus-biotinylation peptide-His(10)-phi29 pol-C-terminus; expressed in E. coli co-expressing biotin ligase, Ni-NTA purified) LNDLFEAQKIEWHHHHHHHHHHHMKHMPRKMYSCDFETTTKVEDCRVWAYGYMNIEDHSEYKIGNSLDEFMAWVLKVQADLYFHNLKFDGAFIINWLERNGFKWSADGLPNTYNTIISRMGQWYMIDICLGYKGKRKIHTVIYDSLKKLPFPVKKIAKDFKLTVLKGDIDYHKERPVGYKITPEEYAYIKNDIQIIAEALLIQFKQGLDRMTAGSDSLKGFKDIITTKKFKKVFPTLSLGLDKEVRYAYRGGFTWLNDRFKEKEIGEGMVFDVNSLYPAQMYSRLLPYGEPIVFEGKYVWDEDYPLHIQHIRCEFELKEGYIPTIQIKRSRFYKGNEYLKSSGGEIADLWLSNVDLELMKEHYDLYNVEYISGLKFKATTGLFKDFIDKWTYIKTTSEGAIKQLAKLMLNSLYGKFASNPDVTGKVPYLKENGALGFRLGEEETKDPVYTPMGVFITAWARYTTITAAQACYDRIIYCDTDSIHLTGTEIPDVIKDIVDPKKLGYWAHESTFKRAKYLRQKTYIQDIYMKEVDGKLVEGSPDDYTDIKFSVKCAGMTDKIKKEVTFENFKVGFSRKMKPKPVQVPGGVVLVDDTFTIK | ~100
8 | SEQ ID NO 5 (other, phi29, biotin on the lysine of the biotinylation peptide (in-vivo biotinylation by biotin ligase), N-terminus-biotinylation peptide-His(10)-phi29 pol-C-terminus; expressed in E. coli co-expressing biotin ligase, Ni-NTA purified) INDIFEAQKIEWHHHHHHHHHHHMKHMPRKMYSCDFETTTKVEDCRVWAYGYMNIEDHSEYKIGNSLDEFMAWVLKVQADLYFHNLKFDGAFIINWLERNGFKWSADGLPNTYNTIISRMGQWYMIDICLGYKGKRKIHTVIYDSLKKLPFPVKKIAKDFKLTVLKGDIDYHKERPVGYKITPEEYAYIKNDIQIIAEALLIQFKQGLDRMTAGSDSLKGFKDIITTKKFKKVFPTLSLGLDKEVRYAYRGGFTWLNDRFKEKEIGEGMVFDVNSLYPAQMYSRLLPYGEPIVFEGKYVWDEDYPLHIQHIRCEFELKEGYIPTIQIKRSRFYKGNEYLKSSGGEIADLWLSNVDLELMKEHYDLYNVEYISGLKFKATTGLFKDFIDKWTYIKTTSEGAIKQLAKLMLNSLYGKFASNPDVTGKVPYLKENGALGFRLGEEETKDPVYTPMGVFITAWARYTTITAAQACYDRIIYCDTDSIHLTGTEIPDVIKDIVDPKKLGYWAHESTFKRAKYLRQKTYIQDIYMKEVDGKLVEGSPDDYTDIKFSVKCAGMTDKIKKEVTFENFKVGFSRKMKPKPVQVPGGVVLVDDTFTIK | ~100
9 | SEQ ID NO 8 (other, phi29, biotin on the lysine of the biotinylation peptide (in-vivo biotinylation by biotin ligase), N-terminus-biotinylation peptide-His(10)-phi29 pol-C-terminus; expressed in E. coli co-expressing biotin ligase, Ni-NTA purified) LNDFFEAQKIEWHHHHHHHHHHHMKHMPRKMYSCDFETTTKVEDCRVWAYGYMNIEDHSEYKIGNSLDEFMAWVLKVQADLYFHNLKFDGAFIINWLERNGFKWSADGLPNTYNTIISRMGQWYMIDICLGYKGKRKIHTVIYDSLKKLPFPVKKIAKDFKLTVLKGDIDYHKERPVGYKITPEEYAYIKNDIQIIAEALLIQFKQGLDRMTAGSDSLKGFKDIITTKKFKKVFPTLSLGLDKEVRYAYRGGFTWLNDRFKEKEIGEGMVFDVNSLYPAQMYSRLLPYGEPIVFEGKYVWDEDYPLHIQHIRCEFELKEGYIPTIQIKRSRFYKGNEYLKSSGGEIADLWLSNVDLELMKEHYDLYNVEYISGLKFKATTGLFKDFIDKWTYIKTTSEGAIKQLAKLMLNSLYGKFASNPDVTGKVPYLKENGALGFRLGEEETKDPVYTPMGVFITAWARYTTITAAQACYDRIIYCDTDSIHLTGTEIPDVIKDIVDPKKLGYWAHESTFKRAKYLRQKTYIQDIYMKEVDGKLVEGSPDDYTDIKFSVKCAGMTDKIKKEVTFENFKVGFSRKMKPKPVQVPGGVVLVDDTFTIK | ~100
